Test [1] concerns the target soluble HCV E2 truncated at amino acid 661 (sE2661), His-tagged (Hepatitis C virus (isolate not stated)). Briefly: SPR (BIAcore), sE2.
The target is the same in test [2]. Briefly: SPR (BIAcore A100), antibody captured on anti-Fc chip, sE2 injected 1.56-50 nM, 1:1 Langmuir fit. (In general: SPR reads the build-up and loss of mass on a sensor chip optically.)

pKd: −log10 of the molar value.

As a reminder, the pKd is −log10 of the Kd, conventionally taken in molar units. In turn, AP33 Fab gave a pKd in test [1] of 7.30.

Substance AP33 antibody (as used in Example 2) gave a pKd in test [2] of 8.10 to 8.30.

Source of the values: US20120027722A1.
